{"source": "paper PMC3462190", "about": "“A Peptidic Unconjugated GRP78/BiP Ligand Modulates the Unfolded Protein Response and Induces Prostate Cancer Cell Death” (PLoS ONE, 2012)", "molecules": {"B1": {"name": "Bag-1: cochaperone Bag-1, HA-tagged (pcDNA3.1-HA-Bag-1), or endogenous (protein)", "chain": "TPLSALGIQDGCRVMLIGKKNSPQEEVELKKLKHLEKSVEKIADQLEELNKELTGIQQGFLPKDLQAE", "modifications": "left off: HA, end not stated, kept", "notes": "cochaperone Bag-1, HA-tagged (pcDNA3.1-HA-Bag-1), or endogenous"}, "B2": {"name": "Bag-1 peptide: internal sequence of 68 amino acids of Bag-1 (Bag1-L 202–269), HA-tagged, expressed from pcDNA3 (peptide)", "chain": "B1 chain", "modifications": "also: HA tag, end not given here"}}, "key": {"GRP78/BiP [1]": {"tested_on": "GRP78/BiP", "assay": "In vivo luciferase refolding assay in HEK-293 cells", "format": "cell-based", "settings": "heat shock 45°C 30 min, relative to non-heat-shocked cells, mean of three independent experiments ± SEM", "protocol": "In vivo refolding assay was performed essentially according to the method described by. HEK-293 in a 70%-confluent 10 cm dish were transfected with β-actin-fire fly luciferase construct (2 µg), pcMV6-GRP78 (3 µg), Bag-1 or Bag-1 peptides in pcDNA3.1-HA (6 µg) and Renilla luciferase construct (0.5 µg) for equal transfection control. Two days after transfection the cells were divided into two and incubated in heat shock buffer (MOPS 20 mM and cycloheximide 20 µg/ml) for 30 min at 37°C. One half of the transfected cells was heat shocked for 30 min at 45°C and allowed to recover at 37°C for 30 min. The other half was left untreated and used as control. At the end of the experiments, the cells were harvested, lysed and luciferase activity was measured. The activity measured for the non-heat shocked cells was set as 100% of refolded luciferase and the activity measurements of the heat shocked cells were expressed relative this value.\nFigure 2 Identification of Bag-1 peptide interfering with the action of GRP78/BiP. […] Depicted in blue and red are the ubiquitin-like domain and the BAG domain respectively. B. Identification of the Bag-1 peptide binding to GRP78/BiP. […] Western blot analysis with an HA antibody to detected the Bag-1 mutants is shown. […] Thereafter luciferase activity was measured. Results are expressed as percentage of refolding activity relative to non-heat-shocked cells and presented as bar charts of the average of three independent experiments ± SEM. *p<0.05.\nFigure 6 Selectivity of action of the Bag-1 peptide. […] Fluorescence polarization (FP) assays with a 10 nM FITC-labeled 7-mer Bag-1 peptide and dilutions of the GST-fused substrate binding domain of GRP78 in 60 µl of Tris-GSH buffer (50 mM Tris, 10 mM reduced glutathione and 0.1% BSA, pH 8.0). Triplicate samples were measured after 5 h of incubation at room temperature with an Infinite F-200 reader (Tecan) with excitation at 490 nm and emission at 535 nm. Binding constants were determined from three independent experiments using non-linear regression in Sigma Plot 10.0. […]"}, "[2]": {"tested_on": "ATPase domain of GRP78/BiP", "assay": "GST pull-down with ATPase domain of GRP78/BiP", "format": "binding", "settings": "10 µg GST-fused ATPase domain, lysate of HEK-293 cells; for the 68 amino acid peptide results not shown"}, "GRP78/BiP [3]": {"tested_on": "GRP78/BiP", "assay": "In vitro ATPase activity assay of GRP78", "format": "biochemical", "settings": "GRP78 0.5 µg, GST purified Bag-1 or Bag-1 peptide up to 1.5 µg, 1 h, 37°C", "protocol": "In vitro ATPase activity assay of GRP78. A. ATPase activity was measured with the ATPase assay kit from Innova Bioscience (Cambridge, UK). The reaction mixture contained GRP78 (0.5 µg) increasing amounts of GST purified Bag-1 (continuous line) or Bag-1 peptide (dashed line) up to 1.5 µg. The reaction was carried out for 1 h at 37°C with purified ATP according to the manufacturer’s instructions. Each point represents the mean value of three independent experiments ± SEM. B. The purity of protein preparation used for the assay. Shown are 5 µg of purified GRP78 (StressMarq Biosciences, Victoria, Canada), GST Bag-1 peptide, and GST-Bag-1 used in the assay following SDS PAGE and Coomassie blue staining. (TIF) Click here for additional data file."}}, "note": "Where no end group is shown, it is not given here.", "data": [{"molecule": "19-mer: Bag-1L 202–220 (TPLSALGIQDGCRVMLIGK; not fully specified)", "values": [{"measurement": "GRP78/BiP refolding activity (luciferase)", "setting": "GRP78/BiP [1]", "value": "inhibited the ability of GRP78/BiP to refold denatured protein"}]}, {"molecule": "B1", "values": [{"measurement": "GRP78/BiP refolding activity (luciferase)", "setting": "GRP78/BiP [1]", "value": "reduced to the control level"}, {"measurement": "interaction with ATPase domain of GRP78/BiP", "setting": "[2]", "value": "interacted not only with the full length GRP78/BiP but also with its ATPase and SBD"}, {"measurement": "ATPase activity of GRP78/BiP", "setting": "GRP78/BiP [3]", "value": "increased this enzymatic activity"}]}, {"molecule": "B2", "values": [{"measurement": "GRP78/BiP refolding activity (luciferase)", "setting": "GRP78/BiP [1]", "value": "reduced to the control level"}, {"measurement": "interaction with ATPase domain of GRP78/BiP", "setting": "[2]", "value": "interacted with both the SBD and ATPase binding domains of GRP78"}, {"measurement": "ATPase activity of GRP78/BiP", "setting": "GRP78/BiP [3]", "value": "did not have any effect on the ATPase activity of GRP78/BiP"}]}]}
